The results in this text go back to publication PMC2900196.

A word on the stoichiometry N: it is the number of molecules, sites or subunits per partner or assembly.

Test [1] deals with Grass carp reovirus (GCRV) inner capsid shell protein VP3 (Grass carp reovirus (GCRV)). The experiment in a line: cryo-EM structure.
Test [2] concerns the target Grass carp reovirus (GCRV) turret protein VP1 (Grass carp reovirus (GCRV)). The test can be described thus: cryo-EM structure.

In turn, “Grass carp reovirus (GCRV) inner capsid shell protein VP3 (natural protein)” yielded a stoichiometry N in test [1] of 120.
Substance “Grass carp reovirus (GCRV) turret protein VP1 (natural protein)” registered a stoichiometry N in test [2] of 5.
